Assay results reported in the Immune Epitope Database (IEDB).

Tests used:
HLA-A*02:01 [1] = test: IEDB peptide-MHC binding, purified MHC/competitive/radioactivity; filed as Kd, often an IC50 or EC50 that approximates it; ≥ and ≤ were set here for values at or beyond the usual limits of such assays
HLA-A*02:03 [2] = test: as above
HLA-A*02:17 = test: as above
HLA-A*02:06 = test: as above
HLA-A*02:02 = test: as above; conditions: source organism: Vaccinia virus WR
HLA-B*15:03 = test: as above; conditions: source organism: Vaccinia virus WR
HLA-B*08:01 = test: as above
HLA-B*15:01 [3] = test: IEDB peptide-MHC binding, purified MHC/competitive/fluorescence; ≥ and ≤ were set here for values at or beyond the usual limits of such assays
HLA-A*03:01 [4] = test: as above
HLA-A*11:01 = test: as above
HLA-A*02:01 [5] = test: as above
HLA-A*24:02 = test: as above
HLA-A*68:02 = test: IEDB peptide-MHC binding, purified MHC/direct/fluorescence; filed as Kd, often an IC50 or EC50 that approximates it; ≥ and ≤ were set here for values at or beyond the usual limits of such assays; conditions: source organism: Zaire ebolavirus
HLA-B*15:01 [6] = test: as above; conditions: source organism: Reston ebolavirus - Reston
HLA-A*02:11 = test: as above; conditions: source organism: Zaire ebolavirus
HLA-A*02:12 = test: as above; conditions: source organism: Zaire ebolavirus
HLA-A*02:19 = test: as above; conditions: source organism: Zaire ebolavirus
HLA-A*03:01 [7] = test: as above; conditions: source organism: Zaire ebolavirus
HLA-A*02:03 [8] = test: as above; conditions: source organism: Zaire ebolavirus
HLA-A*02:16 = test: as above; conditions: source organism: Zaire ebolavirus
HLA-B*27:03 = test: IEDB peptide-MHC binding, purified MHC/competitive/fluorescence; filed as Kd, often an IC50 or EC50 that approximates it; ≥ and ≤ were set here for values at or beyond the usual limits of such assays; conditions: source organism: Zaire ebolavirus
HLA-A*02:01 [9] = test: as above
HLA-B*57:01 [10] = test: as above; conditions: source organism: Zaire ebolavirus
HLA-B*18:01 = test: as above; conditions: source organism: Zaire ebolavirus
HLA-B*39:01 = test: as above; conditions: source organism: Zaire ebolavirus
HLA-A*69:01 = test: as above
HLA-B*58:01 = test: IEDB peptide-MHC binding, purified MHC/direct/fluorescence; filed as Kd, often an IC50 or EC50 that approximates it; ≥ and ≤ were set here for values at or beyond the usual limits of such assays; conditions: source organism: Camelpox virus M-96
HLA-B*57:01 [11] = test: as above; conditions: source organism: Camelpox virus M-96
HLA-B*15:01 [12] = test: IEDB peptide-MHC binding, purified MHC/competitive/radioactivity; filed as Kd, often an IC50 or EC50 that approximates it; ≥ and ≤ were set here for values at or beyond the usual limits of such assays; conditions: source organism: Vaccinia virus WR
HLA-A*30:01 = test: as above; conditions: source organism: Vaccinia virus WR
HLA-A*32:01 = test: as above; conditions: source organism: Vaccinia virus WR
HLA-A*24:03 = test: IEDB peptide-MHC binding, purified MHC/direct/fluorescence; filed as Kd, often an IC50 or EC50 that approximates it; ≥ and ≤ were set here for values at or beyond the usual limits of such assays; conditions: source organism: Zaire ebolavirus
HLA-B*40:01 = test: as above; conditions: source organism: Sudan ebolavirus - Maleo (1979)
HLA-B*45:06 = test: IEDB peptide-MHC binding, purified MHC/competitive/fluorescence; filed as Kd, often an IC50 or EC50 that approximates it; ≥ and ≤ were set here for values at or beyond the usual limits of such assays; conditions: source organism: Zaire ebolavirus
HLA-B*15:01 [13] = test: as above; conditions: source organism: Zaire ebolavirus
HLA-B*46:01 = test: as above; conditions: source organism: Zaire ebolavirus
HLA-B*83:01 = test: as above; conditions: source organism: Zaire ebolavirus
HLA-B*15:42 = test: as above; conditions: source organism: Zaire ebolavirus
HLA-A*26:01 = test: as above; conditions: source organism: Zaire ebolavirus
HLA-B*51:01 = test: as above; conditions: source organism: Zaire ebolavirus
HLA-A*02:03 [14] = test: as above; conditions: source organism: Homo sapiens
[15] = source organism: Dengue virus 4 Philippines/H241/1956
[16] = source organism: Dengue virus 1 Nauru/West Pac/1974
[17] = source organism: Vaccinia virus WR
[18] = source organism: Dengue virus 3 China/80-2/1980
[19] = source organism: Sudan ebolavirus
[20] = source organism: Zaire ebolavirus
[21] = source organism: Vaccinia virus
[22] = source organism: Dengue virus 1 Singapore/S275/1990

Q: For ALLGAMTAGI, which Kd (HLA-A*02:01 [1]; [15]) is on record?
A: 25.3 nM

Q: And the Kd (HLA-A*02:03 [2]; [15])?
A: 58.8 nM

Q: And the Kd (HLA-A*02:17; [15])?
A: 126 nM

Q: Which Kd (HLA-A*02:01 [1]; [16]) does the source give for AMLDVDLHPA here?
A: 5.66 nM

Q: What about the Kd (HLA-A*02:03 [2]; [16]) of the same sequence?
A: 2.03 nM

Q: What about the Kd (HLA-A*02:06; [16]) of the same sequence?
A: 7.08 nM

Q: And the Kd (HLA-A*02:17; [16])?
A: 1100 nM

Q: How did the Kd (HLA-A*02:02) turn out when CAVNTPVSM was run?
A: 6270 nM

Q: And the Kd (HLA-A*02:03 [2]; [17])?
A: 15700 nM

Q: And the Kd (HLA-A*02:06; [17])?
A: 1520 nM

Q: What about the Kd (HLA-B*15:03) of the same sequence?
A: 43 nM

Q: Which results are given for CLMMMLPATL?
A: Kd (HLA-A*02:03 [2]; [18]): 6.85 nM; Kd (HLA-B*08:01; [18]): 60.5 nM; Kd (HLA-A*02:17; [18]): 253 nM

Q: For CMSNSRLSF, which Kd (HLA-B*15:03) is on record?
A: 1.03 nM

Q: What does the source list for FLGEDGCWYG?
A: Kd (HLA-A*02:01 [1]; [15]): 52.4 nM; Kd (HLA-A*02:17; [15]): 1050 nM

Q: Which results are given for GFRSGVPPK?
A: IC50 (HLA-B*15:01 [3]; [19]): ≥ 92300 nM; IC50 (HLA-A*03:01 [4]; [19]): 3790 nM; IC50 (HLA-A*11:01; [19]): 3210 nM

Q: Which results are given for GLAMGIMML?
A: Kd (HLA-A*02:01 [1]; [16]): 77.6 nM; Kd (HLA-A*02:03 [2]; source organism: Dengue virus 1 Brazil/97-11/1997): 0.67 nM; Kd (HLA-A*02:17; [16]): 15000 nM

Q: How did the IC50 (HLA-A*02:01 [5]; [20]) turn out when GLFPQLSAI was run?
A: 431 nM

Q: What about the IC50 (HLA-B*15:01 [3]; [20]) of the same sequence?
A: 10300 nM

Q: And the IC50 (HLA-A*24:02; [20])?
A: 8030 nM

Q: For HLIMFEQYF, which Kd (HLA-B*15:03) is on record?
A: 45.5 nM

Q: HLPGFGTAF was tested. Which Kd (HLA-A*68:02) did it give?
A: ≥ 20000 nM

Q: What about the Kd (HLA-B*15:01 [6]) of the same sequence?
A: 72 nM

Q: What about the Kd (HLA-A*02:11) of the same sequence?
A: ≥ 20000 nM

Q: What about the Kd (HLA-A*02:12) of the same sequence?
A: ≥ 20000 nM

Q: And the Kd (HLA-A*02:19)?
A: ≥ 20000 nM

Q: And the Kd (HLA-A*03:01 [7])?
A: ≥ 20000 nM

Q: And the Kd (HLA-A*02:03 [8])?
A: ≥ 20000 nM

Q: And the Kd (HLA-A*02:16)?
A: ≥ 20000 nM

Q: And the Kd (HLA-B*27:03)?
A: ≥ 20000 nM

Q: What about the Kd (HLA-A*02:01 [9]; [20]) of the same sequence?
A: ≥ 20000 nM

Q: What about the Kd (HLA-B*57:01 [10]) of the same sequence?
A: ≥ 20000 nM

Q: And the Kd (HLA-B*18:01)?
A: ≥ 20000 nM

Q: What about the Kd (HLA-B*39:01) of the same sequence?
A: ≥ 20000 nM

Q: And the Kd (HLA-A*69:01; [20])?
A: ≥ 20000 nM

Q: With ILHSDYQLF as the sequence, how does the Kd (HLA-B*15:03) read?
A: 2.43 nM

Q: How did the Kd (HLA-A*02:01 [1]; [15]) turn out when ILTILTIIGL was run?
A: 18.5 nM

Q: What about the Kd (HLA-A*02:17; [15]) of the same sequence?
A: 456 nM

Q: For ISASDMQKF, which Kd (HLA-B*15:03) is on record?
A: 812 nM

Q: KINQIIHDF was tested. Which IC50 (HLA-A*02:01 [5]; [19]) did it give?
A: ≥ 78600 nM

Q: And the IC50 (HLA-B*15:01 [3]; [19])?
A: 27200 nM

Q: What about the IC50 (HLA-A*24:02; [19]) of the same sequence?
A: 969 nM

Q: Which results are given for KTINALVYF?
A: Kd (HLA-B*58:01): 45.3 nM; Kd (HLA-B*57:01 [11]): 784 nM; Kd (HLA-B*15:01 [12]): 0.366 nM; Kd (HLA-A*30:01): 131 nM; Kd (HLA-A*32:01): 8.73 nM; Kd (HLA-B*08:01; [17]): 17100 nM; Kd (HLA-B*15:03): 22.7 nM

Q: For LAVLFINSI, which Kd (HLA-B*15:03) is on record?
A: 191 nM

Q: Which Kd (HLA-A*68:02) does the source give for LEARVNLSV here?
A: ≥ 20000 nM

Q: And the Kd (HLA-A*24:03)?
A: ≥ 20000 nM

Q: And the Kd (HLA-A*02:12)?
A: ≥ 20000 nM

Q: And the Kd (HLA-A*02:19)?
A: ≥ 20000 nM

Q: What about the Kd (HLA-A*03:01 [7]) of the same sequence?
A: ≥ 20000 nM

Q: And the Kd (HLA-A*02:03 [8])?
A: ≥ 20000 nM

Q: What about the Kd (HLA-B*40:01) of the same sequence?
A: 2340 nM

Q: What about the Kd (HLA-B*45:06) of the same sequence?
A: ≥ 5000 nM

Q: What about the Kd (HLA-B*27:03) of the same sequence?
A: ≥ 20000 nM

Q: What about the Kd (HLA-A*02:01 [9]; [20]) of the same sequence?
A: ≥ 20000 nM

Q: And the Kd (HLA-B*15:01 [13])?
A: ≥ 20000 nM

Q: And the Kd (HLA-B*57:01 [10])?
A: ≥ 20000 nM

Q: What about the Kd (HLA-B*18:01) of the same sequence?
A: ≥ 20000 nM

Q: What about the Kd (HLA-B*46:01) of the same sequence?
A: ≥ 20000 nM

Q: What about the Kd (HLA-B*39:01) of the same sequence?
A: ≥ 20000 nM

Q: And the Kd (HLA-B*83:01)?
A: ≥ 5000 nM

Q: And the Kd (HLA-B*15:42)?
A: ≥ 5000 nM

Q: What about the Kd (HLA-A*26:01) of the same sequence?
A: ≥ 20000 nM

Q: And the Kd (HLA-B*51:01)?
A: ≥ 20000 nM

Q: And the Kd (HLA-A*69:01; [20])?
A: ≥ 20000 nM

Q: Which results are given for LFLDIECHF?
A: Kd (HLA-B*15:01 [12]): 547 nM; Kd (HLA-A*30:01): 19 nM; Kd (HLA-A*32:01): 3440 nM; Kd (HLA-B*08:01; [17]): 1120 nM; Kd (HLA-B*15:03): 47.3 nM

Q: For LLFGIKCIK, which IC50 (HLA-A*02:01 [5]; [21]) is on record?
A: 914 nM

Q: What about the IC50 (HLA-B*15:01 [3]; [21]) of the same sequence?
A: ≥ 229000 nM

Q: And the IC50 (HLA-A*03:01 [4]; [21])?
A: 770 nM

Q: What about the IC50 (HLA-A*11:01; [21]) of the same sequence?
A: 734 nM

Q: Which Kd (HLA-A*32:01) does the source give for LMTMNIVNF here?
A: 6530 nM

Q: And the Kd (HLA-B*15:03)?
A: 16.5 nM

Q: LQKLAQHSI was tested. Which Kd (HLA-B*15:03) did it give?
A: 243 nM

Q: QQFYWPVMN was tested. Which IC50 (HLA-A*02:01 [5]; [20]) did it give?
A: 8000 nM

Q: And the IC50 (HLA-B*15:01 [3]; [20])?
A: 34000 nM

Q: For SQIITLTAF, which Kd (HLA-B*15:01 [12]) is on record?
A: 1.01 nM

Q: And the Kd (HLA-A*30:01)?
A: 16400 nM

Q: What about the Kd (HLA-A*32:01) of the same sequence?
A: 1200 nM

Q: What about the Kd (HLA-B*08:01; [17]) of the same sequence?
A: ≥ 40600 nM

Q: What about the Kd (HLA-B*15:03) of the same sequence?
A: 0.791 nM

Q: How did the Kd (HLA-A*02:01 [1]; [15]) turn out when VLFVVTLIPL was run?
A: 57 nM

Q: What about the Kd (HLA-A*02:17; [15]) of the same sequence?
A: 3110 nM

Q: For VLMLVAHYAI, which Kd (HLA-A*02:01 [1]; [22]) is on record?
A: 97.4 nM

Q: What about the Kd (HLA-A*02:17; [22]) of the same sequence?
A: 1830 nM

Q: Which results are given for WQSVGHMMV?
A: IC50 (HLA-A*02:01 [5]; [20]): 1540 nM; IC50 (HLA-B*15:01 [3]; [20]): 4760 nM

Q: With YQGSYGFRL as the sequence, how does the Kd (HLA-A*02:01 [9]; source organism: Homo sapiens) read?
A: 13 nM

Q: What about the Kd (HLA-A*02:03 [14]) of the same sequence?
A: 2140 nM

Q: What about the Kd (HLA-A*69:01; source organism: Homo sapiens) of the same sequence?
A: ≥ 20000 nM
